Laboratory results taken from the nanobody polyreactivity screen of Harvey et al. (2022).

Test: yeast display, Sf9 membrane polyspecificity reagent, FACS + sequencing; frameworks hold sequencing errors
Method in brief: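 Sorting gates, low and high (top ~1%), were placed on anti-HA fluorescence to track expression and on streptavidin fluorescence to track reagent binding. A clone's polyreactivity label is taken from the gate it came out of. The reagent was 10% biotinylated, detergent-solubilized Sf9 membrane, applied for 1 hour at 4 °C to galactose-induced yeast display cells.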

QVQLVESGGGLVQAGGSLRLSCAASGSTFGIYDMGWYRQAPGKERELVAAITSGGDTNYADSVKGRFTISRDNAKNTVYFQKNSLKPEDTAVYYCNARDGGQGNYSARYDYWGQGTQVTVSS
polyreactivity (PSR sort gate): low polyreactivity

QVQLVESGGGLVQAGGSLRLSCAASGSTFGKNAMGWYRQAPGKERELVAAISTSGTRTFFADSVKGRFTISRDNAKNTVYLQMNSLKPEDTAFYYWNAGRSSRAYYYWGQGTQVTVSS
polyreactivity (PSR sort gate): high polyreactivity

QVQLVESGGGLVQAGGSLRLSCAASGSTFGKNAMGWYRQAPGKERELVAAITRGSGSTYYADSVKGRFTISRDNAKNTVYLQMNSLKPEDTAVYYCAARRYRLSTPEFNYWGQGTQVTVSS
polyreactivity (PSR sort gate): high polyreactivity

QVQLVESGGGLVQAGGSLRLSCAASGSTFGKYAMGWYRQAPGKEREFVAGISWSADSTYYADSVKGRFTISRDNAKNTVYLQMNSLKPEDTAFYYCATDGSSDEFRPEYDYWGQGTQVTVSS
polyreactivity (PSR sort gate): low polyreactivity

QVQLVESGGGLVQAGGSLRLSCAASGSTFGKYVMGWYRQAPGKERELVAAISRSGGSTYYADYVKGRFTISRDNAMNTVYLQMNSLKPEDTAVYYCNAVVYFVGDFDYWGQGTQVSVSS
polyreactivity (PSR sort gate): high polyreactivity

QVQLVESGGGLVQAGGSLRLSCAASGSTFGLYAMGWYRQAPGKERELVAAISGGSGRTYYADSVKGRFTISRDNAKNTVYLQMNSLKPEDTAVYYCAAVPVYRHEYDYWGQGTQVTVSS
polyreactivity (PSR sort gate): low polyreactivity

QVQLVESGGGLVQAGGSLRLSCAASGSTFGLYAMGWYRQAPGKERELVAAISSRGSRTYYADSVKGRFTISRDNAKNTVYLQMNSLKPEDTAVYYCNALYASSVRHKVTYDYWGQGTQVTVSS
polyreactivity (PSR sort gate): high polyreactivity

QVQLVESGGGLVQAGGSLRLSCAASGSTFGLYAMGWYRQAPGKERELVADITWSGGSTYYADSVKGRFTISRDNAKNTVYLQMNSMKPEDTAVYYCAARYAWVYYDFDYCGQGTQVTVSS
polyreactivity (PSR sort gate): low polyreactivity

QVQLVESGGGLVQAGGSLRLSCAASGSTFGLYAMGWYRQAPVKEREFVAAISWRTGSTYYADSVKGRFTISRDTAKNTVYLQMNSLKPEDTAVYYCNAPYFYSRYSPDDYWGQGTQVTVSS
polyreactivity (PSR sort gate): high polyreactivity

QVQLVESGGGLVQAGGSLRLSCAASGSTFGMNAMGWYRQAPGKERELVAAIDSSGGTTYYADSVKGRFTISRDHAKNTVYLQMNSRKPEDTAVYYCAADDNYYTFGYWGQGSQVTVSS
polyreactivity (PSR sort gate): high polyreactivity

QVQLVESGGGLVQAGGSLRLSCAASGSTFGNAMGWYSQAPGKERELVAAISGSGSDTYYADSVKGRFTISRDNAKNPVYLQMNSLKPEDTAVYSWATETHRLDKGTDYGYDYWGQGTQVTVSS
polyreactivity (PSR sort gate): low polyreactivity

QVQLVESGGGLVQAGGSLRLSCAASGSTFGPNAMGWYRKAPGKERELVAALSKRGGRTDYADSVKGRFTISRDNAKNTVYLQMNSLKPEDTAVYYCNARDGSYYQGDYWGQGNQVTVSS
polyreactivity (PSR sort gate): high polyreactivity

QVQLVESGGGLVQAGGSLRLSCAASGSTFGPNAMGWYRQAPGKERELVAAIRSNGGRTYYADSVKGRFTISRDNAKNTVYLQMNSLKPEDTAVYYCAAPHYPYDTPYGYWGQGTQVTVSS
polyreactivity (PSR sort gate): low polyreactivity

QVQLVESGGGLVQAGGSLRLSCAASGSTFGPNAMGWYRQAPGKERELVAAIRSQGGRTYYAYSVKGRFTISRDNAKNSVYLQMNSLIPEDTAVYYCGDPHYPYDTPYGYWGQGTQVTVSS
polyreactivity (PSR sort gate): low polyreactivity

QVQLVESGGGLVQAGGSLRLSCAASGSTFGPNTMGWYRQAPRKERELVAAITSTGSTYYADSVKGRFTISRDNAKNTVYLQMNSLKPEDTAVYYCAARRYYGVYYAFYYWGQGTQVTVSS
polyreactivity (PSR sort gate): high polyreactivity

QVQLVESGGGLVQAGGSLRLSCAASGSTFGPYAMGWYRQAPGKERELVAAITLSGGSTYYADSVKGRFTISRDYAKNTVYLQLNRLKPEYTAVYYCAAEYDRVDEDDYWGQGTQVTVSS
polyreactivity (PSR sort gate): high polyreactivity

QVQLVESGGGLVQAGGSLRLSCAASGSTFGPYAMGWYRQAPGKEREMVAAISKTGGRTYYADSVKGRFTISRDNAKNTVYLQMHSLKPEDTAVYYCAADVGTAQSTYGYWGQGTQVTVSS
polyreactivity (PSR sort gate): high polyreactivity

QVQLVESGGGLVQAGGSLRLSCAASGSTFGPYAMGWYRQAPGKEVELVAAITASVGSTYYAESVKGRFTISRDNAKNTVYLQMNSLKPEDTAVYYCNADLSYFFGPYWGLYGLDYWGQGTQVTVSS
polyreactivity (PSR sort gate): low polyreactivity

QVQLVESGGGLVQAGGSLRLSCAASGSTFGPYTMGWYRQAPGKERELVAAISYSGASTYYADSVKGRFTISRDNAMNTVYLQMNSLKPEDTAVYYCNTVYRYTRARYPYDYWGQGTQVTVSS
polyreactivity (PSR sort gate): high polyreactivity

QVQLVESGGGLVQAGGSLRLSCAASGSTFGPYVMGWYRQAPGKERELVAAISQSGGSTYYADSVKGRFTISRDNAKNTVYLQMNSLKPEDTAVYYCAAQTPYGMYYWGQGTQVTVSS
polyreactivity (PSR sort gate): low polyreactivity

QVQLVESGGGLVQAGGSLRLSCAASGSTFGQYALGWYRQAPGKERELVATISSGSTYYADSVKGRFTISRDNAKNTVYLQMNSLKPEDTAVYYCAARRIHTTSSRGYYWGQGSQVTVSS
polyreactivity (PSR sort gate): high polyreactivity

QVQLVESGGGLVQAGGSLRLSCAASGSTFGQYAMGWYRQAPGKERELVAAISRNGGRTYYADSVKGRFTISRDNAKNTVYLQMNSLKPEDTAVYYCAAGGFHYVYYRGMYYWGQGTQVTVSS
polyreactivity (PSR sort gate): high polyreactivity

QVQLVESGGGLVQAGGSLRLSCAASGSTFGRNAMGWYRQAPGKERELVAAISTSGSRTYYADSVKGRFTISRDNAKNTVYLQMNSLKPEDTAVYYCNAYGVSRGSYGTRGYWGQGTQVTVSS
polyreactivity (PSR sort gate): high polyreactivity

QVQLVESGGGLVQAGGSLRLSCAASGSTFGRNAMGWYRQSPGKERELVAAISSRGGGTYYADSVKGRFTISRDNAKNSVYLQMNSLKPEDTAVYYCAADYVYGYYPKYTYKPSGYWGQGTQVTVTS
polyreactivity (PSR sort gate): high polyreactivity

QVQLVESGGGLVQAGGSLRLSCAASGSTFGRYAMGWYRQAPGKERELVAAISRGGSTYYADSVKGRFTISRDNAKNTVYLQMNSLKPEDTAVYYCNKGDSKEYDVYYWGQGTQVTVSS
polyreactivity (PSR sort gate): low polyreactivity

QVQLVESGGGLVQAGGSLRLSCAASGSTFGRYAMGWYRQAPGKERELVAAISRGTTTNYADSVKGRFTFSRDIAKNTVYLQMNSLKPVDTAVYYCAAESPSVFDGYAQLYIILEDYWGQGTQVTVSS
polyreactivity (PSR sort gate): low polyreactivity

QVQLVESGGGLVQAGGSLRLSCAASGSTFGRYAMGWYRQAPGKERELVAGITSSGRTNYADSVKGRFTISRDNAKNTVYLQMNSLKPEDTAVYYCAKRWLRYGYRYDYWGQGTQVTVSS
polyreactivity (PSR sort gate): high polyreactivity

QVQLVESGGGLVQAGGSLRLSCAASGSTFGRYAMGWYRQARGKERELVAAISYGDGSTYYADSVKGRFTISRDYAKNTVYLQINSLIPEDTAVYYCATETETYSCWDPVWADDYDYWGQGTQVTVSS
polyreactivity (PSR sort gate): low polyreactivity

QVQLVESGGGLVQAGGSLRLSCAASGSTFGRYAMVWYRQAPGKEREFVAGITGRGGSTYYADSVKGRFTISRDNAKNTVYLQMKSLKPEVNAVYYSAAGYRVGYRYDYWGQCTQVTVSS
polyreactivity (PSR sort gate): high polyreactivity

QVQLVESGGGLVQAGGSLRLSCAASGSTFGRYVMGWYRQAPGKERELVAAISKNAGSTYYADSVKGRFTISRDNAKNTVYLQMNSLKPEDTAVYYCAADWRTKGYDSLGQGTQVTVSS
polyreactivity (PSR sort gate): high polyreactivity

QVQLVESGGGLVQAGGSLRLSCAASGSTFGRYVMGWYRQAPGKEWELVAAISGSGGSTYYADSVKGRFTISRDNAKNTVDLQMNSLKPEDTAVYYCAAGGPTYELYRRGYWGQGTQVTVSS
polyreactivity (PSR sort gate): high polyreactivity

QVQLVESGGGLVQAGGSLRLSCAASGSTFGSYAMGWYRPAPGKERELVAAISYSGGSTYYADSVKGRFTISRDNAKNTVYLQMNSLKPEDTAVYYCATVRKYRAMVYWGQGTQVTVSS
polyreactivity (PSR sort gate): high polyreactivity

QVQLVESGGGLVQAGGSLRLSCAASGSTFGSYAMGWYRQAPGKERELVAAISRAGSTYADSVKGRFTISRDNAKNTVYLQMNSLKPEDTAVYYCAKRDNALYYGYDYWGQGTQVTVSS
polyreactivity (PSR sort gate): low polyreactivity

QVQLVESGGGLVQAGGSLRLSCAASGSTFGSYAMGWYRQAPGKERELVAAITASGGSTYYADSVKGRFTISRDNAKNTVYLQMNSLKPEDTAVYYCAADTTYIPLSIEYDYWGQGTQVTVSS
polyreactivity (PSR sort gate): low polyreactivity

QVQLVESGGGLVQAGGSLRLSCAASGSTFGSYAMGWYRQAPGKERELVAAITQIGGSTYYADSVKGRFTISRDNAKNTVYLQMNSLKPEDTEVYYCAVTAGRGGYPQGGVTRGYWGQGTQVTVSS
polyreactivity (PSR sort gate): high polyreactivity

QVQLVESGGGLVQAGGSLRLSCAASGSTFGSYVMGWYRQAPGKERELVAAISGSGGSTYYADSVKGRFTISRDNAKNTVYLQMTSLKPEDTAVYYCAAYVFFPWYGYWGQGTQVTVSS
polyreactivity (PSR sort gate): high polyreactivity

QVQLVESGGGLVQAGGSLRLSCAASGSTFGTNAMGWSRQAPGKERELVAAITYSGGSTYYADSVKGRFTISRDNAKNTVYVQLNSLKPEDTAVYYCAARGHSSKYLWSYEYYYWGQGTQVTVSS
polyreactivity (PSR sort gate): low polyreactivity

QVQLVESGGGLVQAGGSLRLSCAASGSTFGTNVMGWYRQAPGKERELVAAISNGGSTNYADSVKGRFTISRDNAKNTVYLQMNSLKPEDTAVYYCEYDYWGQGTQVTVSS
polyreactivity (PSR sort gate): low polyreactivity

QVQLVESGGGLVQAGGSLRLSCAASGSTFGTYAMGWYRQAPGKERELVAAISWSGGSTYYADSVKGRFTISRDKAKNTVYLQMNSLKPEDTAVYWGQGTQVTVSS
polyreactivity (PSR sort gate): low polyreactivity

QVQLVESGGGLVQAGGSLRLSCAASGSTFGTYAMGWYRQAPGKERELVATISIGGITYYADSVKGRFTISRDNAKYTVYLQMNSLKPEDTAVYYCAKDVTDPTSRSDPSGDDYWGQGTQVTVSS
polyreactivity (PSR sort gate): low polyreactivity

QVQLVESGGGLVQAGGSLRLSCAASGSTFGVNAMGWYRPAPGKERELVAAISSSGSSTYADSVKGRFTISRDNAKNTVYLQMNSLKPEDTAVYYCNKTTLLTVEYDYWGQGTQVTVSS
polyreactivity (PSR sort gate): low polyreactivity

QVQLVESGGGLVQAGGSLRLSCAASGSTFGVNAMGWYRQAPGKERELVAVITRSGGSTYYADSVKGRFTISRDNAKNTFNLQMNSLKPEDSAVYYCNTEGGRDTAWYDYWGQGTEVTVSS
polyreactivity (PSR sort gate): low polyreactivity

QVQLVESGGGLVQAGGSLRLSCAASGSTFGVNDMGWYRQAPGKEREFVADITTSGGSTYYADSVKGRFTISRDHAKNTVYLQMNSLKPEDTAVYYCAADLWPFEHDDYWGQGTQVTVSS
polyreactivity (PSR sort gate): low polyreactivity
